According to the nanobody polyreactivity screen of Harvey et al. (2022):

Assay: yeast display, Sf9 membrane polyspecificity reagent, FACS + sequencing; frameworks hold sequencing errors
Summary of the method: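 Sorting gates, low and high (top ~1%), were placed on anti-HA fluorescence to track expression and on streptavidin fluorescence to track reagent binding. A clone's polyreactivity label is taken from the gate it came out of. The reagent was 10% biotinylated, detergent-solubilized Sf9 membrane, applied for 1 hour at 4 °C to galactose-induced yeast display cells.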

Sequence	polyreactivity (PSR sort gate)
QVQLEESGGGLVQAGGSLRLSWAASGSTFVPNAMGWYRQAPGKERELVAAISYSGGTTYYADSVKGRFTISRDNAKNTVYLQMNSLKPEDTAVYYCAARSKGAAAILDDYWGQGTQVTVSS	low polyreactivity
QVQLVESGGGLVQAGGSLRLSCAASGSIFTGYAMGWYRPAPGKERELVAAITSGGGTYYADSVKGRFTISRDNAKNTVSLQMNSLKPEDTAVYYCATTPGWYKVSRRYGYWGQGTQVTVSS	high polyreactivity
QVQLVESGGGLVQAGGSLRLSCAASGSTFRLYAMGWYRQAPGKERELVAVISRSGGRTYADSVKGRFTISRDNAKNSVYFQMNSLKPEDTAVYYCAKARHKSATYTHDSWGQGTQVTVSS	high polyreactivity
QVQLVESGGGLVQAGGSIRLSCAASGSTYFVYTMGWYRQATGQERELVAAISGSGRSTSYADSVKGRFTISRDNAKNTVYLQMNSLKPEDNAVYYCAARSHVYLRGSTFEFNYWGQGTQVTVSS	high polyreactivity
QVHLVESGGGLVQAGGSLRLSCAASGRNFGTYAMGWYRQAPGKDRELVADISSSGTSTYYADSVKGRFTISRDNAKNTVYLQMNSLKPEDTAVSYCDVVAIDYAYDYYFRLGYDYWGQGTQVSVSS	low polyreactivity
QVQLVESAGGLVQAGGSLRLSCAASGFTFGKNSMGWYRQAPGKERELVAAISGSGSRTYYADSVKGRFTISRDNAKNTVYLQMNSLKPEDTAVYYCAAAVTGSYASDYWGQGTQVTVSS	high polyreactivity
QVQLEESGGGLVQARGSLRLSCAASGSTFNSYAMGWYRQAPGKERELVAAISSTGGNTYYADSVKGRFTISLDNAKNTVYLQMNSLKPEDTAVYYCNARRYGKVVRSSYNYWGQGTQVTVSS	high polyreactivity
QVQLVESGGGLVQAGGSLRLSCAASGRIFWYNAMGWYRQAPGKERELVAVITSGTSTYYADSVKGRFTISRDNAKNTVYVHMNSLKPDDTAVYYCAARYLSRYSERHYYDWGQGTQVTVSS	high polyreactivity
QVQLVESGGGLVQAGGSLRLSCPASGFILQYNAMGWYRQAPGKERELVAAITRSGVSTHYADSVKGRFTISRDNAKNTVYLQMNSLKPEDTAVYYCARTGHSLYSRYYYWGQGTQVTVSS	low polyreactivity
QVQLVESGGGLVQAGGSRRLSCAASGFTFHYYAMGWYRQAPGKERELVAVITSGGSTTYADSVKGRFTISRDNAKNTVYLQMNSLKPEDTAVYYCATDNPFLWWFRPDQHGMGYWGQGTQVTVSS	low polyreactivity
QVQLVESGGGLVQAGGSLRLSCAASGRTFRWNAMGWYRQAPGKERELVAAISSGGSTYYADSVKGRFTISRDNAKNTVYFQMNSLKPEDTAVYYCNKYYVRAYDTQEYDYWGQGTQVTVSS	high polyreactivity
QVQLGESGGGLVQAGGSLRLSCAASGITFWSYAMGLYRQAPGKERELVATIRWSGGGTYYADSVKGRFTISRDNAKNTVYLQMNSLKPEDTAVYYCNADDYGHPPYDYWGQGTQVTVSS	high polyreactivity
QVQLVESGGGLVQAGGSLRLSCAASGSIFGLYAMGWYRQAPGKERDLVAVITYYVGTTYYADSVKGRFTISRDTAKNTVYLQMHSLKPEDTAVYYCAADLYWYYPWSAYYGEYDYWGQGTQVTVSS	low polyreactivity
QVQLVESGGGLVQAGGSLRLSCAASGRTCKYYAMGWYRPAPGKEREEVAAINSGGITYYADSVKGRFTISRDNAKNTVYLQMNSLKPEDTAVYYCAKVWKIGVLRYPSYGYSYWGQGTQVTVSS	high polyreactivity
QVQLVESGGGLVQAGGSLRLSCAASGSIFYGYARGWYRQAPGKERELVASITSSGGSTYYADSVKGRFTISRDNAKNTDYLQMNSLKPEDSAVYYCAVIGYHYSAISPPSQTRQGYDYWGQVTQVTVSS	low polyreactivity
QVQLVESGGGLVQAGGSLRLSCAASGSIFDYNAMGWYRQAPGKERELVASIRWSGGRTYYADSVKGRFTISRDNAKNTVYLQMNSLKPEDTAVYYCNKGLFSTGNIPYYLIVYLEYNYWGQGTQVTVSS	low polyreactivity
QVQLVESGGGLVQAGGSLRLSCAAYGITFSGYDMGWYRQAPGKERELVADITISTGSTYYADSVKGRFTISRDNAKNTVYLEMNSLKAEDTAVYYWNADSWFPDHFSYYGPYDYWGQGSQVTVSS	low polyreactivity
QVQLVESGGGLVQAGGSLRLSCAASGFIVHTNTMGWYIQAPGKERELVAAMSSGGRTNYADSVKGRFTISRDNAKNTVYLQMNSLKPEDTAVYYCAADWHSWRWGYYYWGQGTQVTVSS	low polyreactivity
QVQLVESGRGLVQAGGSLRLSCAASGSISGGNAMGWYRQAPRKARELVAANDYTDDSTYYADSVKGRFTISRDNAKNTVYLQMNSQKPEDTAVYYCAADAYRAQGDYWGQGTQVTVSS	low polyreactivity
QVQLVESGGGLVQAGGSLRLSCAASGINFDDYAMGWYRQAPGTERELVAAITWNGGRTYYADSVKGRFTISRDNAKNTVYLKMNSLKPEDTEVYYCAARITNPAKYNYWGQGTQVTVSS	high polyreactivity
QVQLVESGGGLVQAGGSLRLSCAASGRILKVYAMGWSRQAPGKERELVAAITSGSSTYADSVKGRFTISRDNAKNTVYLQMNSLKPEDTAVYYCAAVFWVDILPGDYWGQGTQVTVSS	low polyreactivity
QVQLVESGGGLVQAGCSLRLICAASGLTFSRYTMGWYRQAPGKERELVAAISLSGGRTYYADSVKGRFTISRDNAKNTVYLQMNSLKPEDTAVYYCNARGTYHGQYYWGEGTQVTVSS	high polyreactivity

Sequence	polyreactivity (PSR sort gate)
QVQLVESGGGLVHAGGSLRLSCAASGSIFPPYAMGWYRQAPVKERELVAAITRSGGSTYYADSVKGRFTISRDNAKNTVYLQLNSLIPEDTAVSDCADRYPGGYGYWGQGTQVTVSS	high polyreactivity
QVQLVESGGGLVQAGGSLRISCAAYGSIFTRYAMGWYRQAPGKERELVAAINSGGSTKYADSVKGRFTISRDNAKNSVYLQMISLKPEDTAVYYCNAGYWWYGYDYWGQGSQVTVSS	high polyreactivity
QVQLVESGVGLVQAGGSLRLSCAASGSTFYQYAIGWYRQAPVKERELVAAISKSGGSTYYADSVKGRFTISRDNAKNTVYLQMNSLKPEDTAVYYCATRWIKGRKMDYWGHGTQVTVSS	high polyreactivity
QVQLVESGGGLVQAGGSLRLSCAASGRIFGGYAMGWYRQAPGKERELVAAIRDSGRTYYADSVKGRFTISRDNAKNTVYLQMNSLKPEDTAVYYCAADAHSSYSPFRWYDYWGQGTQVTVSS	low polyreactivity
QFQLEESGGGLVQAGGSLRLSCDASGSTFSYALGWYRQAPGKERELVAAITIGGRTSYADSVKGRFTISRDNAKNTVYLQMNSLKPEDTAVYYCAAEGYYPVYYYVYYGYDYWGQGTQVTVSS	low polyreactivity
QVQLVESGGGLVQAGGSLRLSCAASGRTFGDYDMGWYRQAPGKERELVAAITSDGTTYYADSVKGRFTISRDNAKNTVYLQMNSLKPEDTAVYYCAADYWYVSWYDYWGQGTQVTVSS	low polyreactivity
QVQLLESGGGLVQAGGSLRLSCAASGLIYVNNPMGWYRKATGKETELVATISSGVSTNYADSVKGRFTISRENAKNSVYLHMNSLKPEDTAVYYCNKGQTVSRGYRLYERYDYWGQGTQVTVSS	low polyreactivity
QVQLVESGGGLVQAGGSLRISCAASGSIFEQYAMAWYRQAPGKERELVAAISKRGTSTYYAVSVKGRFTISRDNAKNTVYLQMNCLKPEDTAVYYCAATNRWYYRDAAAVYAFGYWGQGTQVTVSS	high polyreactivity
HVQLVESGGGLVQAGGSLRLSCAASGSSLDYYVMGWYRQAPGNERELVAAIRGGGSTYYADSVKGRFTISRDNAKNTVYLQMKSLKPEDTEVYYCAKDSQTARDFDYWGQGTQVTVSS	low polyreactivity
QVQLVESRGGLVQAGGSLRLSCAASGIIFSKNAMGWYRQAPGKERELVATINRSGGSTYADSVKGRFTISRDNAKNTVYLQMNSLKPEDTAVYYCAKRASPFWRGYDSCGQGTQVTVSS	high polyreactivity
QVQLVESGGGLVQAGRSLRLSCAASGLIFSWYAMGWYRQAPGKEREFVAAIRWSGSGTYYADSVKGRFTISRDNAKNTVYLQMNSLKPEDTAVYYCAVRWSSGSRRYNYWGQGTQVTVSS	high polyreactivity
QVQLVESGAGLVQAGGSLRLSCAATGSIVDWYVMGWYRQAPGKERELVAAITSTGSTYYADSVKGRFTISRDNAKNPVYLQMNSLKPEDTAVYYCATSFYVYPTYYIMDYWGQGTQVTVSS	low polyreactivity
QDQLVDSGGGLVQAGGSLSLSCAASGYILDYYAMGWSRQAPGKERELVAAISYRGDSTYYADSVKGRFTISRDNEKNTVYLQMNSLKPEDTAVYYCNAGYFTRAQYEYDYWGQGSQVTVSS	high polyreactivity
QVQLVESGGGLVQAGGSLRLSCAASGSIFGDNAMGWYRQAPGKERELVAAISIVGSTSYADSVKGRFTISRDNAKNTVYLPMNSLKPEDTAVYYCAAETVRSDTGFDYWGQGTQVTVSS	low polyreactivity
QVQLVESGGGLVQAGGSLRLSCAASGSILSWYAMGWYRQAPGKERELVAAITGSGGTTYADSVKWRFTISRDNAKNTVYLQMNSLKPEDTAVYYCAADYLGIYDYWGQGTQVTVSS	high polyreactivity
QVHLVESGGGLVQAGGSLRLSCAASGYTFGYYTMGWYRQAPGKERELFASIDSGGGTNYADSVKGRFTISRDNAKNTVFLQMNSLKPEETAVYYCAVDSYQTGVYFYYVYWDFDLGYWGQVTQVTVSS	low polyreactivity
QVQLVQSGGGVVQAGGSLRLSCAASGRIFNTNAMGWYRHAPGKERELVAGITDSGDSTYYADSVKGRFTISRDNAKITVYLQMYSLKPEDSAVYYCATDPASPYIYDFWGLGTQVTVSS	low polyreactivity
QVHLVQSGGGIVQAGGSLRLSCAASGIIIRRYVMGWYRQAPGKERELVATISSSGGSTYYADSVKGRFTISRDNAKTTVYLQMNSLKPEDTAVYYCAVRYYGSGRYYYTYYSWGQGTQVTVSS	high polyreactivity
QVQLVESGGGLLKAGGSLRLISAASGSIFGYNTMGWYRQAPGKERELVADISVSGDDTYYADSVKGRFTISRDNAKNTVYLQMNSLKPEDTAVSYCNAVEYFGYYNTYDYWGQGTQVTVSS	low polyreactivity
QVQLVVSGGGLVQAGGSLRLSCAASGSIFSRYTMGWYRVAPGKERELVAAITASGTRTYYADSVKGRFTISRDNAKNTVYLQMNSLKPEDTAVYYCNVVRGSRDVTYGYNYWGQGTQVTVSS	high polyreactivity
QVQLVESGGGLVQAGGSLRLSCAASGRTFAFYTMGWYIQAPGKERELVAAITRTGSTSYADSVKGRFTISRDNAKNTVYLQMNSLKPEDTAVYFCASVGYPYTLWHQMDYWGQGTQVTVSS	low polyreactivity
